# Read-outs that look alike come from different tables or passages of the source.
# B1: CPSF6-358 (protein, UniProt Q16630 1-358, looked up, fragment)
# chain: MADGVDHIDIYADVGEEFNQEAEYGGHDQIDLYDDVISPSANNGDAPEDRDYMDTLPPTVGDDVGKGAAPNVVYTYTGKRIALYIGNLTWWTTDEDLTEAVHSLGVNDILEIKFFENRANGQSKGFALVGVGSEASSKKLMDLLPKRELHGQNPVVTPCNKQFLSQFEMQSRKTTQSGQMSGEGKAGPPGGSSRAAFPQGGRGRGRFPGAVPGGDRFPGPAGPGGPPPPFPAGQTPPRPPLGPPGPPGPPGPPPPGQVLPPPLAGPPNRGDRPPPPVLFPGQPFGQPPLGPLPPGPPPPVPGYGPPPGPPPPQQGPPPPPGPFPPRPPGPLGPPLTLAPPPHLPGPPPGAPPPAPHVN
# Tests used:
# EIAV = test: CPSF6-358 restriction assay, EIAV; assay type: cell-based; conditions: HEK293T expressing CPSF6-358 vs vector control, GFP virus, MOI 0.4 to 0.5, 48 h (Fig. 5B)
# Description: (§1) Vector control HEK293T cells were infected with GFP viruses at approximate MOIs of 0.4 to 0.5 alongside cells expressing CPSF6-358 (Fig. 5A).
# (§2) HEK293T cells were cultured at 37°C in Dulbecco’s modified Eagle’s medium containing 10% (vol/vol) fetal bovine serum (FBS), 100 IU/ml penicillin, and 100 μg/ml streptomycin (DMEM) in humidified incubators in the presence of 5% CO2.
# (§3) Infections were conducted in duplicate in 24-well plates (10^5 cells/well). After 6 to 8 h, medium was replaced with fresh DMEM or RPMI, and cells were harvested at 48 h from the start of the experiment. GFP reporter viral MOIs were determined as percentage of GFP-positive cells using a FACSCanto flow cytometer (BD Biosciences).
# MLV = test: CPSF6-358 restriction assay, MLV; assay type: cell-based; conditions: HEK293T expressing CPSF6-358 vs vector control, GFP virus, MOI 0.4 to 0.5, 48 h (Fig. 5B)
# Description: as §1, §2
# (§4) Single-cycle GFP and Luc reporter viruses were produced by cotransfection of HEK293T cells in 10-cm dishes with 15 μg total of various ratios of virus production plasmids using PolyJet DNA transfection reagent (SignaGen Laboratories). […] Concentrations of retroviral particles in mU/ml were determined using a TaqMan-based product-enhanced reverse transcriptase (Taq-PERT) real-time PCR assay ([80]).
# (§5) Infections were conducted in duplicate in 24-well plates (10^5 cells/well). […] GFP reporter viral MOIs were determined as percentage of GFP-positive cells using a FACSCanto flow cytometer (BD Biosciences). […] Cell lysates were centrifuged at 17,500 × g for 8 min, and supernatants were analyzed in triplicate for luciferase activity. Relative light units (RLU), determined by luminometer (Berthold Technologies), were normalized to total protein concentration as measured by Pierce BCA protein assay kit (Thermo Fisher Scientific).
# HIV-1 [1] = conditions: cited from earlier work
# HIV-2 = test system: HIV-2; set-up: method as in PMID 20227665; conditions: cited from earlier work
# FIV = test: CPSF6-358 restriction assay, FIV; assay type: cell-based; conditions: HEK293T expressing CPSF6-358 vs vector control, GFP virus, MOI 0.4 to 0.5, 48 h (Fig. 5B)
# Description: as §1, §2, §4, §5
# HIV-1 [2] = conditions: HEK293T expressing CPSF6-358 vs vector, Luc virus, range of virus inocula (Fig. 5C)
# Description: as §1, §2, §4, §5
# primate lentiviruses = test: CPSF6-358 restriction assay, primate lentiviruses; assay type: cell-based; conditions: HEK293T expressing CPSF6-358 vs vector control, GFP viruses, MOI 0.4 to 0.5, 48 h (Fig. 5B)
# Description: as §1, §2, §3
# SIVmac [3] = test system: SIVmac; set-up: method as in 2 sources, ref 33 = [33]; PMID 20227665; doi:10.1016/j.chom.2010.02.007; 33. Lee K , Ambrose Z , Martin TD , Oztop I , Mulky A , Julias JG , Vandegraaff N , Baumann JG , Wang R , Yuen W , Takemura T , Shelton K , Taniuchi I , Li Y , Sodroski J , Littman D , Coffin J , Hugh ||| ref 35 = [35]; PMID 24130490; doi:10.1371/journal.ppat.1003693; 35. Matreyek KA , Yücel SS , Li X , Engelman A 2013 Nucleoporin NUP153 phenylalanine-glycine motifs engage a common binding pocket within the HIV-1 capsid protein to mediate lentiviral infectivity . P; conditions: cited from earlier work
# SIVmac [4] = test: CPSF6-358 restriction assay, SIVmac; assay type: cell-based; conditions: HEK293T expressing CPSF6-358 vs vector, Luc virus, range of virus inocula (Fig. 5C)
# Description: as §1, §2, §4, §5
# SIVmne = test system: SIVmne; set-up: method as in PMID 20227665; conditions: cited from earlier work
# BIV = test: CPSF6-358 restriction assay, BIV; assay type: cell-based; conditions: HEK293T expressing CPSF6-358 vs vector control, GFP virus, MOI 0.4 to 0.5, 48 h (Fig. 5B)
# Description: as §1, §2, §4, §5
molecule,measurement,setting,value
B1,"restriction of infection, in words",EIAV,failed to appreciably restrict EIAV infection
same,"restriction of infection, in words",MLV,MLV-GFP similarly infected control and CPSF6-358-expressing cells
same,"restriction of infection, in words",HIV-1 [1],restricted infection
same,"restriction of infection, in words",HIV-2,restricted infection
same,"restriction of infection, in words",FIV,did not significantly restrict FIV infection
same,"restriction of infection, in words",HIV-1 [2],restriction of HIV-1 and SIVmac-Luc viruses was observed across a range of virus inocula
same,"restriction of infection, in words",primate lentiviruses,potently restricted infection by primate lentiviruses
same,"restriction of infection, in words",SIVmac [3],restricted infection
same,"restriction of infection, in words",SIVmac [4],restriction of HIV-1 and SIVmac-Luc viruses was observed across a range of virus inocula
same,"restriction of infection, in words",SIVmne,restricted infection
same,"restriction of infection, in words",BIV,infection by BIV was similarly unaffected

# From PMC7527728, “CPSF6-Dependent Targeting of Speckle-Associated Domains Distinguishes Primate from Nonprimate Lentiviral Integration” (mBio, 2020)
